Reference: patent US20170247475A1
Blank lines part the entries; values can stand above or below the substance they belong to.

Assays:
[1] = target: mouse serum albumin (mouse) (UniProt P07724); test: SPR, albumin on chip, 1:1 interaction model
[2] = target: cyno serum albumin (cyno); test: SPR, albumin on chip, 1:1 interaction model
[3] = target: human serum albumin (human) (UniProt P02768); test: SPR, albumin on chip, 1:1 interaction model
[4] = target: mouse serum albumin (mouse) (UniProt P07724); test: SPR, albumin on CM5 chip, multicycle kinetics
[5] = target: cyno serum albumin (cyno); test: SPR, albumin on CM5 chip, multicycle kinetics
[6] = target: human serum albumin (human) (UniProt P02768); test: SPR, albumin on CM5 chip, multicycle kinetics
[7] = target: hAng2; test: competition ELISA, blocking of hAng2 binding to hTie2
Chain of hAng2 (chain, as listed by the source limits assumed): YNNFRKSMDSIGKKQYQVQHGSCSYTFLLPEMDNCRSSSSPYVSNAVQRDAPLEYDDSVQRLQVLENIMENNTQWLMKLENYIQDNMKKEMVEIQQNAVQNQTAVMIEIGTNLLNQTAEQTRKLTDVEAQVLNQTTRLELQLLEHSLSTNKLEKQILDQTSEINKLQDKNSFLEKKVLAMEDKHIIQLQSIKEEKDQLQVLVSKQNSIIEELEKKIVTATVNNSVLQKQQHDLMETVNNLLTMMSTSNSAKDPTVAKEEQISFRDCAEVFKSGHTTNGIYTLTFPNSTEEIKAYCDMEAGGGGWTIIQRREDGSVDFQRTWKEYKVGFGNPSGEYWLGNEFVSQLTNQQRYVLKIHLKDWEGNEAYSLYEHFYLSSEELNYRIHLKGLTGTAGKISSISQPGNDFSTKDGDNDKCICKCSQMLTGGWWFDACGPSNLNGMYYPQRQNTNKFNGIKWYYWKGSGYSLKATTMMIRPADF

[8] = target: cAng2 (cynomolgus monkey); test: competition ELISA, blocking of cAng2 binding to cTie2
[9] = target: hAng2; test: competition ELISA hAng2/hTie2-Fc; blocked: hTie2-Fc
[10] = target: hAng2; test: competition ELISA, blocking of hAng2 binding to hTie2-Fc
[11] = target: mAng2; test: competition ELISA, blocking of mAng2 binding to mTie2
Chain of mAng2 (chain, as listed by the source limits assumed): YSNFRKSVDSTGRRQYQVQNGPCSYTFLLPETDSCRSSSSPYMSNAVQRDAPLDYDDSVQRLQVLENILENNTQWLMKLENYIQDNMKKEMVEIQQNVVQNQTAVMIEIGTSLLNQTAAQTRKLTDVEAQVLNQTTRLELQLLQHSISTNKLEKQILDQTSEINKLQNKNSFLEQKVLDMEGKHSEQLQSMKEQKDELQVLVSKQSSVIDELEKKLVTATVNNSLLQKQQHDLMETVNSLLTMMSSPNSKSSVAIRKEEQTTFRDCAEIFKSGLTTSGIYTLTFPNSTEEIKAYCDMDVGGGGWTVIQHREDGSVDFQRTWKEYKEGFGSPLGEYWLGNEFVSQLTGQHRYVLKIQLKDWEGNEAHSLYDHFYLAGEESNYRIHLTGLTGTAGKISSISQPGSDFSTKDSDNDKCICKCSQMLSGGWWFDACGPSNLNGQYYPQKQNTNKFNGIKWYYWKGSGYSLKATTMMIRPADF

[12] = target: cAng2 (cynomolgus monkey); test: competition ELISA, blocking of cAng2 binding to cTie2-Fc
[13] = target: mAng2; test: competition ELISA, blocking of mAng2 binding to mTie2; remark: listed apart in the source
[14] = target: cAng2 (cynomolgus monkey); test: competition ELISA, blocking of cAng2 binding to cTie2; remark: listed apart in the source
[15] = target: mAng2; test: competition ELISA, blocking of mAng2 binding to mTie2-Fc
[16] = target: hAng2; test: competition ELISA, blocking of hAng2 binding to hTie2-Fc; remark: listed apart in the source
[17] = target: mAng2; test: competition ELISA mAng2/mTie2-Fc; blocked: mTie2-Fc
[18] = target: hAng2
[19] = target: cAng2 (cynomolgus monkey); test: competition ELISA, blocking of cAng2 binding to cTie2; remark: listed apart in the source
[20] = target: hAng2; test: competition ELISA, blocking of hAng2 binding to hTie2; remark: listed apart in the source
[21] = target: hAng2; test: competition ELISA hAng2/hTie2-Fc; blocked: hTie2-Fc; remark: listed apart in the source
[22] = target: hAng2; test: competition ELISA, blocking of hAng2 binding to hTie2-Fc; remark: listed apart in the source
[23] = target: hAng2; test: competition ELISA, blocking of hAng2 binding to hTie2; remark: listed apart in the source
[24] = target: mAng2; test: competition ELISA, blocking of mAng2 binding to mTie2; remark: listed apart in the source
[25] = target: hAng2; test: competition ELISA hAng2/hTie2-Fc; blocked: hTie2-Fc; remark: listed apart in the source
[26] = target: mAng2; test: competition ELISA mAng2/mTie2-Fc; blocked: mTie2-Fc; remark: listed apart in the source

Chain of cyno serum albumin (cyno) (A2V9Z4 25-608): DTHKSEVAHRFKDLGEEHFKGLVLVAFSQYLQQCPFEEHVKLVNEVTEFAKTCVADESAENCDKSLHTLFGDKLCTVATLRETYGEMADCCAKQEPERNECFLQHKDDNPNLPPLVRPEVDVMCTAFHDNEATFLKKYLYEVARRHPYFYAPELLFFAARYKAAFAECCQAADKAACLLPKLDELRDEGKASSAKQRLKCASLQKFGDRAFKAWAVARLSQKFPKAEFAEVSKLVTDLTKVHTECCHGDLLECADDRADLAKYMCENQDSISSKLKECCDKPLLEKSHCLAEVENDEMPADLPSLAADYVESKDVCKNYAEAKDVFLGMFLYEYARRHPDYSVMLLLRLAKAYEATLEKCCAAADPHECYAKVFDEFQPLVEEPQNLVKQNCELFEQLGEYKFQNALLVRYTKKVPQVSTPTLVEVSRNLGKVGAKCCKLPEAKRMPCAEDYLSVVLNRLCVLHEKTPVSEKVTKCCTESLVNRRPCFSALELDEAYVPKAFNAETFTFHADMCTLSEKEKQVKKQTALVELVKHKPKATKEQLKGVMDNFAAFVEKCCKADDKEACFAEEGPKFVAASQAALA
Chain of mouse serum albumin (mouse) (P07724 25-608 limits assumed): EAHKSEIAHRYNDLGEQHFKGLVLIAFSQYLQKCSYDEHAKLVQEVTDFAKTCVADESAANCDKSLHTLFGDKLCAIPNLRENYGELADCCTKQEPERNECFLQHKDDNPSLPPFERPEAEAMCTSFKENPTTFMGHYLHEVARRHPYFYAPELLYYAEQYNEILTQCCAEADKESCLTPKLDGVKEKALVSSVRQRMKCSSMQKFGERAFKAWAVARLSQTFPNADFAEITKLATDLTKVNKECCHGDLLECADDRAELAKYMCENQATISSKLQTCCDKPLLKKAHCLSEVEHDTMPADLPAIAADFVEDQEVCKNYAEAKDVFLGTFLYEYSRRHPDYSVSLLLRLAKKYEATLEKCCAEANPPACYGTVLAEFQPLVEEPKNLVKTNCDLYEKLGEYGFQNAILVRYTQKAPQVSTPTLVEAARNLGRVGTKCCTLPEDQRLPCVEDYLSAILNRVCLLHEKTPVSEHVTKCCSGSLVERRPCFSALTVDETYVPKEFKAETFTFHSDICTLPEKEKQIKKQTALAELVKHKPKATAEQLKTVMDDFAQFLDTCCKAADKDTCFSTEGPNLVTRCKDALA

Kd [1]: 51000 pM | koff [1]: 0.03 s⁻¹ | Kd [2]: 4000 pM | Kd [3]: 4000 pM | koff [3]: 0.0019 s⁻¹ | Kd [4]: 49000 pM | koff [4]: 0.032 s⁻¹ | Kd [5]: 4000 pM | koff [5]: 0.0016 s⁻¹ | Kd [6]: 4000 pM | koff [6]: 0.0018 s⁻¹
Substance: ALB11 (VHH)

IC50 (read off the curve) [7]: 1 pM | IC50 (read off the curve) [8]: 3 pM | IC50 (read off the curve) [9]: 4 pM | IC50 (read off the curve) [10]: 2 pM | IC50 (read off the curve) [11]: 3 pM | IC50 (read off the curve) [12]: 10 pM | IC50 (read off the curve) [13]: 1 pM | IC50 (read off the curve) [14]: 30 pM | IC50 (read off the curve) [15]: 2 pM | IC50 (read off the curve) [16]: 3 pM | IC50 (read off the curve) [17]: 5 pM | IC50 (read off the curve) [19]: 4 pM | IC50 (read off the curve) [20]: 6 pM | IC50 (read off the curve) [21]: 7 pM | IC50 (read off the curve) [22]: 3 pM | IC50 (read off the curve) [23]: 3 pM | IC50 (read off the curve) [24]: 9 pM | IC50 (read off the curve) [25]: 6 pM | IC50 (read off the curve) [26]: 6 pM
Substance: AMG386
IC50 (read off the curve), hAng2 mediated HUVEC survival [18]: 1000 pM
